For one substance, stoichiometry N results are on record in paper PMC12374985.

The target in the assay is endogenous PKM2 (human (endogenous in A549, PC9 and HEK293T)) (UniProt P14618). Nature of the assay: cross-linking.

Chain of endogenous PKM2, P14618 1-531 (natural protein; other documents disagree on this pair) (P14618 whole entry): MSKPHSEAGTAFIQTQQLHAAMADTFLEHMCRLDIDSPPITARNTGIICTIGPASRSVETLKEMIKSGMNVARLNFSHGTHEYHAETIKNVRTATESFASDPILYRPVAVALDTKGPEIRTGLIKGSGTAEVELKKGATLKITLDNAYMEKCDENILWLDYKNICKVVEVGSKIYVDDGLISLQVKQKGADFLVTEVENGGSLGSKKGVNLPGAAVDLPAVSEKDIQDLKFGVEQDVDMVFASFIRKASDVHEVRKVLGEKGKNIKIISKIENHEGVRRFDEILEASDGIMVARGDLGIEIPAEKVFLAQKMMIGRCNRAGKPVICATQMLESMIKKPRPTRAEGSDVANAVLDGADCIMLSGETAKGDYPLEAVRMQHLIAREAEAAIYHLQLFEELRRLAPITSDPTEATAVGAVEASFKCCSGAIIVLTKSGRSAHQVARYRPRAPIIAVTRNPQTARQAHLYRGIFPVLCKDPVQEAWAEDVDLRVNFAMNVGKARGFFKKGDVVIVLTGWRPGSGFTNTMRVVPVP

“endogenous PKM2, P14618 1-531 (natural protein; other documents disagree on this pair)” registered a stoichiometry N of 2.

As usually defined, the stoichiometry N is a count of units in the complex or per binding partner.
